Laboratory results: the supplement of paper PMC10724198
± gives the standard deviation of the averaged measurements.

System: Saccharomyces cerevisiae
Experiment: protein stability index of tFT-peptide fusion (C-terminal peptide) (PSI (0-1 scale)); higher = more stable (slower turnover)
Settings: genetic background: wild type; temperature: 30 C
Protocol: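 Multiplexed protein stability (MPS) profiling in S. cerevisiae. Random 12-aa peptides (tFT-X12 library) are fused to the C-terminus of a sfGFP-mCherry tandem fluorescent timer, after mCherry and a GGGS linker. Cells are FACS-sorted into 8 mCherry/sfGFP bins and deep-sequenced. The protein stability index (PSI) is the read-weighted bin average, scaled from 0 (unstable) to 1 (stable). Only peptides with >10 reads are reported; cells were grown at 30 °C in SC-His with glucose.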
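Note: PSI is a weighted mean of sequencing reads over stability bins, variants kept only with over 10 reads, mCherry proximal and sfGFP distal, peptide attached via GGGS linker.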

Sequence	protein stability index
AYVQPASRSPPP	0.735 ± 0.062
NDQASVLSFRSV	0.664 ± 0.063
VGGLGGVGGGMG	0.654 ± 0.03
SIPSPLVPPLTR	0.72 ± 0.04
GCRSQRSDSLMM	0.644 ± 0.028
RVLWGTESFIDL	0.7383 ± 0.0048
KMYKRPNYQKTK	0.64 ± 0.024
NITIEGVELERV	0.715 ± 0.029
TAHHTRPQYLPL	0.622 ± 0.022
PSPPPAPPPHSP	0.665 ± 0.022
VYACGVDFNVRG	0.678 ± 0.094
HSVPSCPKFSII	0.66732 ± 0.00044
SLPLPSPRPILR	0.64 ± 0.0092
VVGRCVWRGMGG	0.688 ± 0.031
SLPPFPVTSRHP	0.691 ± 0.011
FPASLDAVTRPP	0.722 ± 0.011
TEINEAQNIPEK	0.6688 ± 0.0027
RSTGGHGSQAGR	0.711 ± 0.04
PLPLPLASSFPS	0.627 ± 0.059
RRAGGARGKTSE	0.645 ± 0.014
LLPPPPTPDPGP	0.645 ± 0.0067
YNKKKKRYKKKF	0.72 ± 0.0076
GTALERMWLEIE	0.7387 ± 0.0024
APCRSLLADLAL	0.736 ± 0.036
GGGGRGVGAGGG	0.652 ± 0.061

Sequence	protein stability index
PLPLASVTPPYL	0.669 ± 0.0067
DFSNDCLRVLGD	0.673 ± 0.021
AECMLGLFSGVL	0.73 ± 0.033
MPPRVLSALAPL	0.642 ± 0.0023
GNPRRNLSTSSR	0.712 ± 0.02
AWRGLAPRFVLT	0.544 ± 0.01
VRGKGWRGGWWG	0.682 ± 0.031
TVFDPLGLPALL	0.617 ± 0.04
WGCVGVGGLFSG	0.665 ± 0.017
LCPWRYAVLFSP	0.645 ± 0.068
GGAGSFVEKEID	0.69 ± 0.044
SFYFSAFYPSIV	0.667 ± 0.013
PAPPAPPPPPYL	0.735 ± 0.087
KKKGSKITKIKD	0.699 ± 0.064
ALSFFGSCCLPF	0.748 ± 0.014
WVGSGRVWVKLG	0.708 ± 0.0092
WVPGAAGFTGSL	0.74 ± 0.049
WGSSCQAEDVTN	0.737 ± 0.016
DVLESPVLYPTN	0.70948 ± 7.6e-05
RNRLTTMCRHLE	0.655 ± 0.062
DSSYVYHFRCVS	0.62055 ± 0.00019
QKKTKRGLTYTS	0.67 ± 0.043
YFFDYGVSRVLS	0.584 ± 0.015
WGRRWRCAGRGG	0.656 ± 0.056
RGWDEHRVGSEY	0.671 ± 0.095

Sequence	protein stability index
AGPWMESPTKSC	0.702 ± 0.023
VRGLGRLSRAEV	0.77 ± 0.014
KDVGKVATRRSK	0.696 ± 0.028
LLLDRGISLLLL	0.607 ± 0.026
KKETKLKKTEVK	0.69 ± 0.095
SPPGYPGNPSPL	0.662 ± 0.021
WNPHFHALSWRL	0.684 ± 0.019
LRLCPAPYIPVL	0.591 ± 0.012
HLRPRYSLVPAT	0.651 ± 0.048
SLRLFSPILSSL	0.684 ± 0.011
NGKFLREKMRWG	0.662 ± 0.036
EARRGTAGGQKK	0.626 ± 0.039
WSSVSGEFRSLW	0.707 ± 0.035
PLAPNYPANTGT	0.69 ± 0.021
SPPSPSTPPARP	0.747 ± 0.15
SSLNLLIHTAPL	0.739 ± 0.023
SCSVGRRIGLGQ	0.688 ± 0.061
DGAVRLGVGGLG	0.682 ± 0.041
GDGGGMVEGLSR	0.66946 ± 0.00014
RLDMKLAIDISR	0.7631 ± 0.0011
SIISRVLDAMAK	0.724 ± 0.21
ESCIKGCSGVVS	0.651 ± 0.06
DVYLVGLGVWSS	0.668 ± 0.035
RIKQKEEKRNRY	0.779 ± 0.01
DVGISICLLHGA	0.6664 ± 0.002

Sequence	protein stability index
KRITRKRIKRRR	0.7772 ± 0.0015
RGRGKAGGETTV	0.686 ± 0.035
KNITIKKSKIKD	0.61 ± 0.055
KNKKNKCNKVKK	0.726 ± 0.024
TTGGRGSRVGGR	0.6975 ± 0.0024
WPHGHVNTHRIG	0.737 ± 0.038
ALLPFLTPLLSR	0.561 ± 0.054
FRICSLTLSLSI	0.5517 ± 0.0048
SADILGLPRYLT	0.656 ± 0.023
GGALLGGGAMGL	0.643 ± 0.037
PPPPPPPTPIHP	0.72 ± 0.01
RCNCTTTTLRSK	0.6046 ± 0.0019
AYAPPSALPYPF	0.729 ± 0.0075
KKKKNHKRKKRN	0.828 ± 0.041
AYVHGSINPMQP	0.691 ± 0.011
RPPLPPPPPLPP	0.578 ± 0.03
LKKSEKLSNKII	0.644 ± 0.041
LLNIPLVFFSFP	0.58 ± 0.1
QFQVWGAPGLKR	0.711 ± 0.12
LARTSVACEGLG	0.703 ± 0.045
ANQKRTKQQHRR	0.722 ± 0.01
CCVSLQSNLLFS	0.68 ± 0.026
LSPLPPDLPDLP	0.699 ± 0.12
CLGLRFDFYGFV	0.702 ± 0.065
VRVVPPQPELSP	0.648 ± 0.051

Sequence	protein stability index
PPRSPPLPPAPT	0.762 ± 0.013
RTDTKPTGEHEA	0.694 ± 0.045
PLSPLHHCPLSP	0.666 ± 0.039
NGCVRNVSSLVF	0.607 ± 0.066
GVVSSSIFDLWS	0.746 ± 0.12
STPDRFVSRGRQ	0.702 ± 0.043
GQPLLVCMSGFW	0.684 ± 0.01
LAPSPPPPPLPL	0.677 ± 0.01
APKPPPPPPPLP	0.709 ± 0.02
FWGVAPSDRVSK	0.697 ± 0.0078
TVGGAMSCLGWL	0.714 ± 0.011
LSRVLQAPRRGG	0.681 ± 0.0075
YGAVRFTLIPLQ	0.639 ± 0.024
YWSFRKGGLALY	0.651 ± 0.019
SFFLALSIRLPN	0.609 ± 0.0042
RYGDGIELVIGS	0.657 ± 0.011
PLPPPPPPPPLP	0.767 ± 0.024
NNKSNKKKERKE	0.698 ± 0.053
AVSFGSTLANWA	0.718 ± 0.062
CGCVWVSYFFDK	0.655 ± 0.069
PTKKRQHSDRRK	0.644 ± 0.013
SLHPPPPPFRLS	0.753 ± 0.014
SLVLSFPLLSLP	0.697 ± 0.025
GFLWLLGGVLGV	0.658 ± 0.082
PPHSTPPTGRPG	0.753 ± 0.014

Sequence	protein stability index
VGRVGVREGVVG	0.638 ± 0.067
WGTGGGLGVGHV	0.726 ± 0.093
PSPSPPRLLPPP	0.7 ± 0.031
LTFILGPPRMWL	0.669 ± 0.018
PPLLTPPSTLFS	0.661 ± 0.022
DLSVSDGCVAFG	0.64 ± 0.048
GCLLVVAGGGRG	0.698 ± 0.069
LHRLRLASRAAL	0.719 ± 0.068
SFTSSFPGSSPS	0.703 ± 0.058
KKKKKKEYTKTN	0.718 ± 0.011
GSMVWVRCGLER	0.634 ± 0.022
SCLFGIFRWWVG	0.568 ± 0.025
YNSRKQKKREKK	0.706 ± 0.027
KIKINKRIQNKK	0.682 ± 0.036
VLSSASRGSRCL	0.707 ± 0.17
RVSLGHGRAFWP	0.711 ± 0.083
LGFGCVYCGEAW	0.689 ± 0.033
GVGGGWVGCGVI	0.764 ± 0.06
LPGFTLPSSPSH	0.702 ± 0.034
PRARHSVPNIQS	0.694 ± 0.042
RVWIWHPPTVRD	0.625 ± 0.016
CSLPPSPAVPPP	0.644 ± 0.022
APPPSVCPRFPI	0.796 ± 0.012
YRYGVSWFDWRI	0.784 ± 0.058
LMRSFLHFHLCL	0.632 ± 0.01

Sequence	protein stability index
FLRLGLLQTFSP	0.677 ± 0.04
LLCLKIGASWSK	0.674 ± 0.028
SPGTFLSLRMSI	0.703 ± 0.015
GLAYPAGALSLL	0.684 ± 0.1
VRWGLLLSCLRS	0.666 ± 0.03
VVSLGLGPSLRV	0.709 ± 0.1
AFFRPGISRPYG	0.71 ± 0.0072
KIKERKNVKGKK	0.685 ± 0.024
SFRCLGFTSSRV	0.681 ± 0.05
KYGTPFPPEVEM	0.718 ± 0.034
SHRRSMTNNKAK	0.705 ± 0.01
SGSSIAVLPTPC	0.747 ± 0.11
PIGLTCPASSVL	0.692 ± 0.046
KEKKNKKKKQNR	0.701 ± 0.021
SVRGMFPSAGVS	0.6934 ± 0.00093
SGVILWSAWRDG	0.7029 ± 0.0014
GGLIWRHGVGRG	0.692 ± 0.018
LVVGGLVLSGNL	0.668 ± 0.057
LPPHSAPLAHGP	0.714 ± 0.065
SRSWLPPVFPRV	0.807 ± 0.059
SLPRPPPPASTP	0.623 ± 0.0068
LTGESGDRSVGP	0.657 ± 0.019
VFSASCYSNSAR	0.739 ± 0.032
NNVCGIIFRQHH	0.632 ± 0.048
SFSLAGFVCCVI	0.6002 ± 0.0045

Sequence	protein stability index
AWRGFVALSFSR	0.695 ± 0.049
DRVGGCESRAGR	0.651 ± 0.04
VFAFLKPTGKLV	0.597 ± 0.05
RSRKICYREEKR	0.644 ± 0.029
RKNYRISYKLLD	0.715 ± 0.02
PLLLPPVPPFCF	0.674 ± 0.12
RWGGRTASVPCG	0.754 ± 0.015
PSPAPPPLPFPR	0.72 ± 0.038
SLKRRWPYPNRP	0.681 ± 0.011
SPPPPHVPLSPS	0.712 ± 0.032
PVPPTPPHPGPL	0.617 ± 0.059
PSAASIFLPFPL	0.733 ± 0.048
GDRGIKAYGVRG	0.65 ± 0.015
HDETKAYLAPGQ	0.697 ± 0.037
LGVGGRWVAPGA	0.678 ± 0.094
GVESRSCCVFWG	0.72 ± 0.012
PGLPCRNRMPFR	0.687 ± 0.0078
SALRWPRPVLRV	0.619 ± 0.017
KGKRSRTRKPEE	0.677 ± 0.013
PPPPLPPTPPPL	0.673 ± 0.025
KEILTNNQKGQD	0.6602 ± 0.0036
